Patent US20140206846A1 (published 2014)

How the values were obtained:
human IL6 = biological target: T1, human IL6 (human, UniProt P05231 30-212); assay: Biacore SPR, Fab captured by anti-light chain antibody, IL6 as analyte
T1 construct: Bought recombinant protein
Description: Antibody libraries were selected against human VEGF (Peprotech catalogue number 100-20) and human IL6 (Peprotech catalogue number 200-06). Of the isolated parental antibody clones, IL6P and VEGFP were combined into the bi-specific antibody clone VH6L. […] To assess the affinities of parental and bi-specific antibodies, Biacore™ analysis was performed in order to analyze the binding behaviour of IL6P, VH6L and VEGFP. For this, an anti-light chain capture antibody was immobilized onto a CM5 chip using amine-coupling, resulting in 12000 RU. Fab fragments were captured to a level of 400-500 RU and a concentration series of IL6 and VEGF, ranging from 0 to 450 nM, was passed over the chip. As depicted in FIG. 7, clone IL6P binds to IL6, but not to VEGF, clone VEGFP binds to VEGF, but not to IL6, and the combined clone VH6L binds to both IL6 and VEGF.

HEL = biological target: T2, HEL (UniProt P00698 19-147, biotinylated); assay: ELISA, biotinylated target (20 nM) on streptavidin plates, Fab in culture supernatant
T2 construct: Control target of the ELISA
Description: To test the specificity of antibodies selected from Lib1 and Lib2 libraries against one target and the specificity of bi-specific antibodies designed to bind both targets, Enzyme-linked immunosorbent assays (ELISAs) were performed using standard methods. Briefly, Nunc Maxisorp plates were prepared by coating with Streptavidin dissolved in 1×PBS, binding 20 nM of biotinylated targets (GST, MBP, HEL or VEGF) in PBS-T (0.3% Tween-20 dissolved in 1×PBS) and blocking with 5% skimmed milk powder in PBS-T. Thereafter, 50 μl of E. coli TG1 culture supernatant expressing antibody clones as soluble Fab fragments in microtiter plates were added, followed by detection of bound Fab fragments using goat anti-human kappa light chain polyclonal antibody (Sigma) or mouse anti-Strep tag antibody (IBA) specific for a Strep-Il tag fused to the C-terminus of the heavy chain in the soluble Fab expression construct. Secondary antibodies were detected using HRP-labeled tertiary antibodies, ELISAs were developed using TMB substrate (KPL), and signal was quantified using a Victor plate reader from PerkinElmer set to 450 nm. […] None of the clones bound the control targets HEL or VEGF (FIG. 5). Experiments were performed in duplicate using two independent colonies for each Fab.

T2 sequence (P00698 19-147): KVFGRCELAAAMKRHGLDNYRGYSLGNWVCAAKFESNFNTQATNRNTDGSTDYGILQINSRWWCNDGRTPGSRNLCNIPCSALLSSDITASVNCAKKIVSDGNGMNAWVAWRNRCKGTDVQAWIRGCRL

Binder	Kd (human IL6) [nM]	binding result (HEL)
IL6P (Fab, V domains shown) VH: EVQLVESGGGLVQPGGSLRLSCAASGFTFSSYAMSWIRQAPGKGLEWIGQISGSGGSTVYNYNVLGRFTISRDNSKNTLYLQMNSLRAEDTAVYYCARDSGYFDIWGQGTLVTVSS VL: NIQKTQSPSSLSASVGDRVTITCRALWHISSYLAWYQQKPGKAPKLLIYAASSLYSGVPSRFSGSGSGTDFTLTISSLQPEDFATYYCQQYSGLPYTFGQGTKVEIKR	38	–
VH6L (bispecific antibody, V domains shown, Combination of IL6P and VEGFP; two paratopes in one VH-VL pair; tested as Fab fragment; also called bi-specific antibody clone VH6L; combined clone VH6L) VH: YYQLVESGGGLVQPGGSLRLSCAADGFLFSGYAMSWIRQAPGKGLEWIGQISGSGGSTVYNYNVLGRFTISRDNSKNTLYLQMNSLRAEDTAVYYCARDTGYFDHWGQGTLVTVSS VL: NIQKTQSPSSLSASVGDRVTITCRALWHISSYLAWYQQKPGKAPKLLIYAASHLHYGVPSRFSGSGSGTDFTLTISSLQPEDFATYYCQQYSGLPYTFGQGTKVEIK	40	–
Dummy 1 Fab (Fab, V domains shown, Tested as soluble Fab in E. coli TG1 culture supernatant; Strep-II tag fused to the C-terminus of the heavy chain) VH: EVQLVESGGGLVQPGGSLRLSCAASGFTFSSYAMSWIRQAPGKGLEWIGQISGSGGSTYYNDNVLGRFTISRDNSKNTLYLQMNSLRAEDTAVYYCARDSGYFDIWGQGTLVTVSS VL: DTQMTQSPSSLSASVGDRVTITCRASQSISSYLAWYQQKPGKAPKLLIYAASSLYSGVPSRFSGSGSGTDFTLTISSLQPEDFATYYCQQYSSLPYTFGQGTKVEIK	–	no binding
